Patent US20250026856A1 (UCB, published 2025)

T1: human transglutaminase type 2 (TG2) (human, UniProt P21980 2-687)
T1 sequence: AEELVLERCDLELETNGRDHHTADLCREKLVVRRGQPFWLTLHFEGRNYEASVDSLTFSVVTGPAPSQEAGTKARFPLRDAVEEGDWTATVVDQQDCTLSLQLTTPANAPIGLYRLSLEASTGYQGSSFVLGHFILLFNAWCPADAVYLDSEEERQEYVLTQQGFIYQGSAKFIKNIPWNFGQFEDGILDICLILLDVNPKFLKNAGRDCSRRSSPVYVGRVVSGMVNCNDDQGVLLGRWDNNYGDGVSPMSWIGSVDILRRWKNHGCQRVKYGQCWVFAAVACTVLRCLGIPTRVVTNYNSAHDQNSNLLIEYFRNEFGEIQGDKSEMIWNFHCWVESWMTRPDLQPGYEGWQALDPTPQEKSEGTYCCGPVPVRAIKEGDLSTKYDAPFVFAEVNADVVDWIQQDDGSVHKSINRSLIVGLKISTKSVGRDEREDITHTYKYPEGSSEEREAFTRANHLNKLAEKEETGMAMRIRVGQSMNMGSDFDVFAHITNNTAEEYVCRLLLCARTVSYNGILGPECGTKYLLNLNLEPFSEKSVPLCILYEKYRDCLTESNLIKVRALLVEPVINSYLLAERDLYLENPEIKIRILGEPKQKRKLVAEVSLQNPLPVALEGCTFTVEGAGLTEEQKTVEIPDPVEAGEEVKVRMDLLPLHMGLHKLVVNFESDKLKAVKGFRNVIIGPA


How the values were obtained:
[1] = target: rabbit TG2 (rabbit); test: cell-based or functional assay
[2] = target: T1, human transglutaminase type 2 (TG2); test: cell-based or functional assay

Row | IC50 against rabbit TG2 [1] | IC50 against human TG2 [2] | Binder
1 | 8 nM | 0.3 nM | rbBB7 (antibody, V domains shown) VH: EVQLLESGGRLVTPGGSLTLTCAASGIIFSSSAMSWVRQAPGKGLEWVATISSGGRSTYYPDSVKGRFTVSRDSSKNTLYLQMNSLRAEDTAVYYCAKLISPYWGQGTLVTVSS VL: AIKMTQTPSSVSAAVGGTVTISCKASQDINSYLTWFQQKPGQPPKTLIYLTNRLMDGVPSRFSGSGSGQEFLLTISGLECDDAATYYCLQYVDFPYTFGGGTKVVVK
2 | 103 nM | 0.25 nM | Zampilimab (antibody, V domains shown) VH: EVQLLESGGGLVQPGGSLRLSCAASGFTLSTHAMSWVRQAPGKGLEWVATISSGGRSTYYPDSVKGRFTISRDNSKNTLYLQMNSLRAEDTAVYFCARLISTYWGQGTLVTVSS VL: DITMTQSPSSLSASVGDRVTITCKASQDINSYLTWFQQKPGKAPKILIYLVNRLVDGVPSRFSGSGSGQDYALTISSLQPEDFATYYCLQYDDFPYTFGQGTKVEIK
